The record followed here is US20120121507A1 (NATIONAL RESEARCH COUNCIL OF CANADA, published 2012).

The target of experiment [1] is T1, recombinant human clusterin (human, UniProt P10909 23-449).
T1 construct: also called rhCLU; rh-clusterin
Briefly: SPR, rhCLU flowed over immobilized P3375, global fit. The protocol:
(§1) Protein-peptide interactions were followed using a BIAcore 3000 instrument (Biosensor AB, Uppsala, Sweden). All binding experiments were carried out at 25° C. under a continuous flow of the HBS-EP buffer (20 mM HEPES, 150 mM NaCl, 3.4 mM EDTA and 0.05% Tween-200) at pH 7.4 over the sensor surface at a flow rate of 20 μL/min. Different concentrations of rh-clusterin in the HBS-EP buffer were injected over the peptide-derivatized sensor chips. Dissociation was monitored for up to 300 s post-injection. The surfaces were fully regenerated by 15 s injection of an HBS-EP buffer solution containing 5 mM NaOH. […] Reference responses from control flow cells, containing unmodified dextran surfaces, were subtracted from peptide-containing flow cells, for each analyte injection using the BiaEvaluation software version 3.0 (Biacore AB, Uppsala, Sweden).
(§2) The resulting sensorgrams were used for kinetic rate determination through global fitting of the experimental data to a simple 1:1 Langmuir binding model. […] Affinity data (KD) from the binding studies were obtained by plotting the response in RU at the steady state, Req, versus the concentration of clusterin, C, and by fitting these curves to a one-site binding model, Req=C*xRmax/(C+KD) where Rmax is the value in RU at saturation and Req is the observed optical change in RU at each given C. […]

The target of experiment [2] is T1, recombinant human clusterin. The experiment is described as follows: SPR (BIAcore 3000), rhCLU over immobilized P3375 (1200 RU), kinetic global fit, 1:1 Langmuir. How it is done: as §1, §2
(SPR reads the build-up and loss of mass on a sensor chip optically.)

For experiment [3] the target is unchanged. The experiment is described as follows: SPR (BIAcore 3000), rhCLU 2 nM-1.1 µM over immobilized P3375 (1200 RU), global fit, 1:1 Langmuir. The protocol:
as §1, §2

Experiment [4] shares this target. Briefly: SPR, rhCLU 0 nM to 1.4 µM over immobilized P3376 (150 RU), response at equilibrium, one-to-one binding model. How it is done:
as §1, §2

The target is the same in experiment [5]. Briefly: SPR, rhCLU flowed over immobilized P3376, fit of the response against the clusterin concentration [inset]. How it is done: as §1, §2
Experiment [6] shares this target. Briefly: SPR, rhCLU flowed over immobilized P3378R. The protocol: as §1
This control peptide has the same amino acid content as P3378 but with a randomized sequence ([…]—SEQ ID NO:6). A lack of binding between rhCLU and this control peptide is evidenced by the linear nature of the Scatchard plot (inset; the response at equilibrium plotted against the concentration of rhCLU).

Experiment [7] shares this target. The experiment is described as follows: SPR (BIAcore 3000), rhCLU over immobilized P3378 (500 RU), kinetic global fit, 1:1 Langmuir. The protocol: as §1, §2
For experiment [8] the target is unchanged. The experiment is described as follows: SPR (BIAcore 3000), rhCLU 5.5 nM-1.4 µM over immobilized P3378 (500 RU), global fit, 1:1 Langmuir. The protocol: as §1, §2
Experiment [9] has the same target. The experiment is described as follows: SPR, rh-clusterin 0-1.2 µM over immobilized P3378, no antibody; no antibody; rh-clusterin alone over immobilized P3378. The protocol:
as §1, with “All” for “Protein-peptide interactions were followed using a BIAcore 3000 instrument (Biosensor AB, Uppsala, Sweden). All”
(§3) The question of whether an EMT-blocking anti-clusterin monoclonal antibody (mAb) 16B5 and P3378 have overlapping or independent binding sites on clusterin was investigated using SPR biosensor analysis. Several mAbs that interact with clusterin have been isolated; five of these mAbs, including 16B5, interact with an epitope on clusterin that is important for the EMT-promoting action of clusterin. Accordingly, these anti-clusterin mAbs inhibit EMT in cell culture, and tumor metastasis in animal models (O'Connor-McCourt et al, WO 2007/030930). […]

The target is the same in experiment [10]. The experiment is described as follows: SPR, rh-clusterin alone flowed over immobilized P3378, fit of the response against the clusterin concentration [inset]. The protocol:
as §1, with “All” for “Protein-peptide interactions were followed using a BIAcore 3000 instrument (Biosensor AB, Uppsala, Sweden). All”
as §3

Experiment [11] shares this target. The experiment is described as follows: SPR, rh-clusterin preincubated with mAb 16B5 (ratios of 1:1.7), flowed over immobilized P3378; rh-clusterin preincubated with mAb 16B5 (ratio 1:1.7). How it is done: Different concentrations of rh-clusterin in the HBS-EP buffer were injected over the peptide-derivatized sensor chips. Dissociation was monitored for up to 300 s post-injection. The surfaces were fully regenerated by 15 s injection of an HBS-EP buffer solution containing 5 mM NaOH. […] Reference responses from control flow cells, containing unmodified dextran surfaces, were subtracted from peptide-containing flow cells, for each analyte injection using the BiaEvaluation software version 3.0 (Biacore AB, Uppsala, Sweden).
as §3, with “2007/030930). Since clusterin-binding peptides can be used to non-invasively image clusterin-expressing tumors (primary tumors and metastases) in vivo, it is important to determine whether treatment with anti-clusterin mAbs may block peptide binding to the clusterin target and therefore compromise the ability of the peptides to image the tumor.” for “2007/030930).”

The target is the same in experiment [12]. The experiment is described as follows: SPR, rh-clusterin flowed over immobilized P3375R, response against the clusterin concentration [right panel]. The protocol: as §1
The sequence dependence of the clusterin-peptide interactions was investigated using SPR biosensor analysis and peptides with scrambled sequences. Immobilization of the peptides on the sensor chips and the SPR experiments were conducted as described in Example 4.

T1 sequence (P10909 23-449 limits assumed): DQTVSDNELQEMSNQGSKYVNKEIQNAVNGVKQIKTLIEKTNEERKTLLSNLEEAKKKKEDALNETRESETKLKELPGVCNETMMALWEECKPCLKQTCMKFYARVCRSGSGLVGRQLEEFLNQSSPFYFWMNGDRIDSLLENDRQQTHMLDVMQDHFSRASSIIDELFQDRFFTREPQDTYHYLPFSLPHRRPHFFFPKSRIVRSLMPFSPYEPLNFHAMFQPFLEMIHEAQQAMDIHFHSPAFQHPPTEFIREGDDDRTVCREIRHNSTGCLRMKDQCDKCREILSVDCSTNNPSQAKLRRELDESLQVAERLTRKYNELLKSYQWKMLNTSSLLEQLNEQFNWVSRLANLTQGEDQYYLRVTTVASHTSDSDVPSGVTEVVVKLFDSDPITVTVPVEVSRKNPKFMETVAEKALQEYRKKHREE

B1: P3375 synthetic peptide (NTYWSQLLHFQT with C-terminal SGSGC extension) (peptide)
peptide: NTYWSQLLHFQTSGSGC
notes: In SPR it was immobilised through the C-terminal Cys (thioether); In STD-NMR it was free in solution
B1: in experiment [1], the koff was determined as 0.00603 s⁻¹. In addition, the Kd in [2] is 540 nM. In experiment [3], the off-rate (koff) turned out to be 0.006 s⁻¹ and the kon came out at 11200 M⁻¹ s⁻¹.

B2: P3376 synthetic peptide (SHALPLTWSTAA with C-terminal SGSGC extension) (peptide)
peptide: SHALPLTWSTAASGSGC
notes: as for B1
For the molecule B2, the dissociation constant (Kd) turned out to be 340 nM in experiment [4] and 342 nM in experiment [5].

B3: P3378R, randomized-sequence control peptide of P3378 (PYLHQSPHWKPSSGSGC) (peptide)
peptide: PYLHQSPHWKPSSGSGC
notes: Immobilised on the SPR chip; also called scrambled control peptide
In the case of B3, in [6], the binding result was “no binding”.

B4: P3378 synthetic peptide (HPLSKHPYWSQP with C-terminal SGSGC extension) (peptide)
peptide: HPLSKHPYWSQPSGSGC
notes: Synthesised by Fmoc chemistry; In SPR it was immobilised on a CM5 chip by a thioether bond from the C-terminal Cys to maleimide; In STD-NMR it was free in solution
Consider B4, for which the Kd in experiment [7] came to 300 nM; in experiment [9] it was 520 nM; in experiment [10], 514 nM; in experiment [11] it was 1100 nM. Besides, the koff in [8] turned out to be 0.0052 s⁻¹. Besides, the kon in [8] amounted to 17200 M⁻¹ s⁻¹.

As to LSLYHTNTQFWQSGSGC (Immobilised on the SPR chip) [P3375R, randomized version of P3375 (LSLYHTNTQFWQSGSGC)], the “EC50 (read off the curve)” value in experiment [12] is ~200 nM.

As usually defined, the koff is the rate constant with which the complex falls apart. A word on the Kd: it is the concentration at which binding is half-saturated. In general, kon refers to the rate constant with which the complex forms. What is called EC50 (read off the curve) is the concentration giving half of the maximal effect.
